# Data reported in article PMC8454712 (Biochemical Journal, 2021).
# B1: NADPH oxidase NOX4, HepG2 cells (natural protein, human (endogenous in HepG2), UniProt Q9NPH5 1-578, looked up)
# chain: MAVSWRSWLANEGVKHLCLFIWLSMNVLLFWKTFLLYNQGPEYHYLHQMLGLGLCLSRASASVLNLNCSLILLPMCRTLLAYLRGSQKVPSRRTRRLLDKSRTFHITCGVTICIFSGVHVAAHLVNALNFSVNYSEDFVELNAARYRDEDPRKLLFTTVPGLTGVCMVVVLFLMITASTYAIRVSNYDIFWYTHNLFFVFYMLLTLHVSGGLLKYQTNLDTHPPGCISLNRTSSQNISLPEYFSEHFHEPFPEGFSKPAEFTQHKFVKICMEEPRFQANFPQTWLWISGPLCLYCAERLYRYIRSNKPVTIISVMSHPSDVMEIRMVKENFKARPGQYITLHCPSVSALENHPFTLTMCPTETKATFGVHLKIVGDWTERFRDLLLPPSSQDSEILPFIQSRNYPKLYIDGPFGSPFEESLNYEVSLCVAGGIGVTPFASILNTLLDDWKPYKLRRLYFIWVCRDIQSFRWFADLLCMLHNKFWQENRPDYVNIQLYLSQTDGIQKIIGEKYHALNSRLFIGRPRWKLLFDEIAKYNRGKTVGVFCCGPNSLSKTLHKLSNQNNSYGTRFEYNKESFS
# Molecular target: Growth factor receptor-bound protein 2 (Grb2), HepG2 cells (human (endogenous in HepG2), UniProt P62993 1-217)
# Assay: co-IP
# Sequence of Growth factor receptor-bound protein 2 (Grb2), HepG2 cells (P62993 whole entry): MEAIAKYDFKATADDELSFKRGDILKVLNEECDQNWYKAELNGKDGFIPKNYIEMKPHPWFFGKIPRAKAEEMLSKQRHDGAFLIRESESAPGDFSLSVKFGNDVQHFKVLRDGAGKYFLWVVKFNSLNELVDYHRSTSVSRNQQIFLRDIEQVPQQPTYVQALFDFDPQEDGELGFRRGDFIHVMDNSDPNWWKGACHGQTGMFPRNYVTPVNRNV
binder,measurement,value
B1,"fold change of the co-precipitated interaction, T2D condition against control",1.35 fold
